Test results as given in patent publication US20040009897A1.

How the values were obtained:
[1] = molecular target: human recombinant soluble CD4 (human) (UniProt P01730); experiment: competitive ELISA on rsCD4; competitor mAb B4-HRP; unlabelled mAb B4 at 20 µg/mL, positive control run with week 9 sera
[2] = molecular target: human recombinant soluble CD4 (human) (UniProt P01730); experiment: competitive ELISA on rsCD4; competitor mAb B4-HRP; unlabelled mAb B4 at 2.0 µg/mL, positive control run with week 9 sera
[3] = molecular target: human recombinant soluble CD4 (human) (UniProt P01730); experiment: competitive ELISA on rsCD4; competitor mAb B4-HRP; unlabelled mAb B4 at 20 µg/mL, positive control run with week 11 sera
[4] = molecular target: human recombinant soluble CD4 (human) (UniProt P01730); experiment: competitive ELISA on rsCD4; competitor mAb B4-HRP; unlabelled mAb B4 at 20 µg/mL, positive control run with week 17 sera
[5] = molecular target: human recombinant soluble CD4 (human) (UniProt P01730); experiment: competitive ELISA on rsCD4; competitor mAb B4-HRP; unlabelled mAb B4 at 2.0 µg/mL, positive control run with week 11 sera
[6] = molecular target: human recombinant soluble CD4 (human) (UniProt P01730); experiment: competitive ELISA on rsCD4; competitor mAb B4-HRP; unlabelled mAb B4 at 2.0 µg/mL, positive control run with week 17 sera

mAb B4 (anti-binding site monoclonal antibody), unlabelled, purified
% Inhibition [1]: 63%
% Inhibition [2]: 23.5%
% Inhibition [3]: 63%
% Inhibition [4]: 48.7%
% Inhibition [5]: 11.7%
% Inhibition [6]: 11.7%
